In FireProtDB (doi:10.1038/s41598-019-41819-5) one finds denaturant m value and unfolding free energy data, which are given here for three variants.

Values joined by “and” are separate entries in the source; they are usually repeats but may differ in a detail not shown here. Equal entries are not always repeated.

B1: Forkhead box protein P1, Q9H334 (parent)
chain: MMQESGTETKSNGSAIQNGSGGSNHLLECGGLREGRSNGETPAVDIGAADLAHAQQQQQQALQVARQLLLQQQQQQQVSGLKSPKRNDKQPALQVPVSVAMMTPQVITPQQMQQILQQQVLSPQQLQVLLQQQQALMLQQQQLQEFYKKQQEQLQLQLLQQQHAGKQPKEQQQVATQQLAFQQQLLQMQQLQQQHLLSLQRQGLLTIQPGQPALPLQPLAQGMIPTELQQLWKEVTSAHTAEETTGNNHSSLDLTTTCVSSSAPSKTSLIMNPHASTNGQLSVHTPKRESLSHEEHPHSHPLYGHGVCKWPGCEAVCEDFQSFLKHLNSEHALDDRSTAQCRVQMQVVQQLELQLAKDKERLQAMMTHLHVKSTEPKAAPQPLNLVSSVTLSKSASEASPQSLPHTPTTPTAPLTPVTQGPSVITTTSMHTVGPIRRRYSDKYNVPISSADIAQNQEFYKNAEVRPPFTYASLIRQAILESPEKQLTLNEIYNWFTRMFAYFRRNAATWKNAVRHNLSLHKCFVRVENVKGAVWTVDEVEFQKRRPQKISGNPSLIKNMQSSHAYCTPLNAALQASMAENSIPLYTTASMGNPTLGNLASAIREELNGAMEHTNSNESDSSPGRSPMQAVHPVHVKEEPLDPEEAEGPLSLVTTANHSPDFDHDRDYEDEPVNEDME

In the data set the parent is B1. As to conditions: Homo sapiens, 37 °C, GdnHCl, fluorescence, transition: 3, structure 2KIU, whole UniProt chain shown.

Regarding V539C, for the setting “pH 5”, the denaturant m value was 3.1 kcal/mol/M and 1.1 kcal/mol/M; the unfolding free energy is 1.4 kcal/mol and 4.2 kcal/mol.

Consider S518C, for which the denaturant m value (pH 5) is 3.2 kcal/mol/M and 1.4 kcal/mol/M; the denaturant m value (pH 7.8) is 2.7 kcal/mol/M and 2 kcal/mol/M.

For H520A, the denaturant m value reads like this: (pH 5) 5.8 kcal/mol/M; (pH 7.8) 6.6 kcal/mol/M. The unfolding free energy (pH 5) is 17.9 kcal/mol and the unfolding free energy (pH 7.8) was found to be 20.2 kcal/mol.
